Experimental findings from the supplement of paper PMC12042874 are described below.

± gives the uncertainty stated by the source.

The data set can be described thus: amyloid nucleation score (Sup35N fusion, yeast selection) (log enrichment); library NNK3; higher = more nucleation; inactive = no reads after selection. The essentials:
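The nucleation score equals the log enrichment of output over input reads from DiMSum, centred on the mode score of non-aggregating sequences. It was computed only for sequences with 100 or more input reads. The reads came from Illumina sequencing of plasmid inserts from psi-negative yeast expressing Sup35N fused to peptides of 20 random codons, induced with 100 μM copper sulfate for 24 hours and grown 7 days at 30°C without adenine and uracil.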
With QDLMRTEHFNYS, the amyloid nucleation score result is “inactive”.

With QDNVKVVGAVGFYDILNGVE, the amyloid nucleation score entry is “inactive”. Take QEIRTVTGALTDTWIVFICR: the amyloid nucleation score entry was “inactive”. With QFCSI the entry was “inactive”. With QFFCFNRLWDWVTFRVIDMS the entry was “inactive”; with QFGSWD, “inactive”.

Consider QFKLHCYRGMVVNHSLMCDT, for which the amyloid nucleation score result was “inactive”. As for QFMNKIIMCLGSF, the figure is -0.263 ± 0.58; as for QFPSFANIIANCPLGFLWYA, “inactive”; as for QFYGLHMAFGKQVNALYTGH, “inactive”. For the substance QGISQPRHCFY, the amyloid nucleation score entry was “inactive”. Turning to QGKCDSELRAAAMDI, the amyloid nucleation score entry is “inactive”. On to QGLSCDFRVLLLIYRSCGRG, for which the amyloid nucleation score result is “inactive”. With QGSLVKFS, the amyloid nucleation score result is “inactive”. With QGSMLRHY the entry was “inactive”. Turning to QGYLRKYPVTGICVIYECDG, the amyloid nucleation score entry was “inactive”.

Take QHKKKIAF: the amyloid nucleation score result was “inactive”. As for QHNSK, the entry is “inactive”. For the substance QHWWSYWMFSGKRQCVVFPV, the amyloid nucleation score entry is “inactive”. With QIFLCTGFCR the figure was 2.69 ± 0.062; with QILGTQAGYYCSREGFANL, “inactive”; with QILLFSFRVLFAGYRKIAST, “inactive”. QIPSGVVCGMNGYCLGAVTR: the amyloid nucleation score result is “inactive”. As for QIVRYASSQCDCRNFLSTVE, the entry is “inactive”; as for QKHNSIFMLAVCCYKSCKQ, 1.07 ± 0.084. As for QLCFGVMLRCSCCGKQVWEK, the figure is 1.84 ± 0.1; as for QLCLCRKATLMSPTRLLQRA, -0.41 ± 1.9; as for QLHRENEVVRYVF, “inactive”.

As for QLKSVRACGRRGPLSQ, the amyloid nucleation score result is “inactive”. With QLLVF the figure was -1.23 ± 1.9; with QLRASA, “inactive”; with QLVFYHVDLHILPFWSAI, 2.15 ± 0.081. With QLWNWVFYYISNILGKGMHL the entry was “inactive”; with QMRTWSKIYICTKPFL, 1.07 ± 0.1.

As to QPVTRLFFISGSRGDLVEKH, the amyloid nucleation score result is “inactive”. As to QRAMYCKSLMSF, the amyloid nucleation score result is “inactive”. With QRDHMGFSGDLW the entry was “inactive”. QRFPKCI: the amyloid nucleation score result was “inactive”. As to QRFYILPRQCNALKGIITSL, the amyloid nucleation score entry was “inactive”. With QRLVINDMMPLFFWHSNMGD the entry was “inactive”. As for QRVSFCIEVIGFQ, the figure is -0.042 ± 0.98. Substance QRYTFIIIGTGWTGYYRHTP gave an amyloid nucleation score of -0.156 ± 0.41. As for QSEALNNFWVGSILSYMVLG, the entry is “inactive”; as for QSKFFGQWFLRQND, 0.299 ± 0.21; as for QSKSYFTL, “inactive”.

Consider QSPRRRMQSDIWS, for which the amyloid nucleation score result was “inactive”. Regarding QSSCGIMQPYRQWMPYSTYG, the amyloid nucleation score result was “inactive”. As for QSSKDTWRCASDKYERSGKR, the entry is “inactive”; as for QSSLLSTVNGVFKSDTRVRV, “inactive”; as for QSTGCLYSYLLANVGKSSGK, “inactive”. With QSYVFVVLTPWVSRCGIGLA the entry was “inactive”. QTGLVMWQLTFTYPLHVWNM: the amyloid nucleation score result was “inactive”. With QTNLGPFVPSYGCFLCWMEG the entry was “inactive”; with QTSMVVDDYCILYVLHWGWG, “inactive”; with QTVKHIKICGVCWVSMLMF, 2.07 ± 0.086.

Turning to QVILKNMGPNIVSYGLG, the amyloid nucleation score entry was “inactive”.

QVLFAYIYLSLVNVSQG showed an amyloid nucleation score of 1.03 ± 0.14. As for QVNKFCYCMVDKLVVVH, the figure is 2.27 ± 0.074; as for QVTLWFKKNLSELM, “inactive”; as for QWCCVTRFIGYSKGYGRKAP, “inactive”. QWFRKLFYLTSLEDAPQIPR: the amyloid nucleation score entry was “inactive”. With QWIVDFCNCTWEVVRVLRFC the entry was “inactive”; with QWSNCDMASAYYAYRNLNAD, “inactive”; with QWVSLGLVGVGQ, “inactive”. As for QYDIVLCGQWYGLSKGLRYS, the entry is “inactive”; as for QYFPDIY, “inactive”; as for QYVYLCRYLNMRPACYDMVV, -0.329 ± 0.8.

Turning to RACARVLLEVCFLFEFSMST, the amyloid nucleation score result was “inactive”. Regarding RACYLF, the amyloid nucleation score entry was “inactive”. As for RAFFDTSCGMSLDPSLIPTG, the entry is “inactive”; as for RAFFLVIAIFNKVEVVSGST, 1.15 ± 0.14; as for RAHIPWKRCFV, -1.06 ± 1.9. As for RAKVNSRGCEESFF, the figure is -0.007 ± 0.73. With RALLTGWTMSRPGLFIIATS the figure was -0.273 ± 1.1; with RAVTSWYVVRWFIRYNTSNA, “inactive”; with RAVYSGVSMD, “inactive”. Take RAYFGCFQGFILLFSYLMC: the amyloid nucleation score result was “inactive”. With RCCLNTVPSAFTGYKNPTVK, the amyloid nucleation score result was “inactive”. As for RCDRVCGWGDRFNAGSGYRW, the entry is “inactive”. With RCECVPPNQTRCYQRLASS the entry was “inactive”; with RCEFIFS, “inactive”; with RCFKLLNSTECCSKWVRAFS, “inactive”. As for RCGKPVGRTYGLGISIEKAR, the entry is “inactive”. On to RCIGALRTRPSTEGRTSLRI, for which the amyloid nucleation score entry is “inactive”.

RCMIVASFYLSLIWKI: the amyloid nucleation score result was “inactive”. As for RCNALSLWIYNEKSWNNTWY, the figure is 1.74 ± 0.084; as for RCNLGTAAHFCKY, “inactive”. As for RCTGRLRTVGRSSMLEFEFV, the entry is “inactive”; as for RCTVSTSGSGGFCPVPRSGM, “inactive”. With RDEYYRDRLGIVNLSRCSKS the entry was “inactive”; with RDGSM, “inactive”; with RDHWNELGRDYGWTLCKKAY, “inactive”. RDRQFSSSDVPGCEVTGRTD registered an amyloid nucleation score of 1.04 ± 0.12. RDSLFSV: the amyloid nucleation score entry was “inactive”. For RDVFINPTTGQALNVWACCR, the amyloid nucleation score entry was “inactive”. As for RDWKEDLFFF, the entry is “inactive”; as for RDWLIMSLGVVLVWFLRYQY, “inactive”. As to RDYYGVLLNLCLHHFWLHW, the amyloid nucleation score result was “inactive”. With REASCGIDRMIRRCTERLSC the entry was “inactive”. As for RECDFFLWAYYLVNIQLRVQ, the figure is -0.27 ± 0.66; as for REEAVWQADFVYLTKSAILN, “inactive”. As for REWCLEVYHWYITRSHVYWC, the entry is “inactive”. On to REYPYDMYSHLSLFDARHPG, for which the amyloid nucleation score entry is “inactive”.

Turning to RFACFSRGACFCNRLVMPYD, the amyloid nucleation score entry was “inactive”. RFAPFMRGM gave an amyloid nucleation score of -0.784 ± 1.5. In the case of RFFVNL, the amyloid nucleation score result was “inactive”.

For the substance RFIEKTSKIMSPDAYPSLKY, the amyloid nucleation score entry was “inactive”. With RFKCSTNGCRTFRGHHYNVK the entry was “inactive”; with RFMSCMGFPHRCHGSSRYVG, “inactive”.

RFTSVILNTSDLSKLRMGTE: the amyloid nucleation score came out at 0.437 ± 0.31. As for RGESHVCLCYL, the figure is 0.761 ± 0.17; as for RGGRYDFMCDTCSLIVFASV, -0.645 ± 1.1. With RGIDYSHTL the entry was “inactive”.

In the case of RGIEVMDLTLARAHKRA, the amyloid nucleation score entry is “inactive”. RGNDLIVCCGDRMCFCNALS: the amyloid nucleation score result was “inactive”. As for RGQFICRCGVARPV, the entry is “inactive”; as for RGQRVSSVMRRTQVGDWNTP, “inactive”. As for RGSGILRVLTKSRWCICMGT, the entry is “inactive”. Consider RGVIPLNSKCKL, for which the amyloid nucleation score result is “inactive”. As for RGYGAAHQRRCQRIRNYYKY, the entry is “inactive”; as for RGYSANWNLMVAVTCGTIH, -0.422 ± 0.71. As for RHQHKRGAV, the figure is -0.982 ± 1.4; as for RHRIRWSMRRNWSACVQ, “inactive”. As for RHWDVLK, the entry is “inactive”; as for RHWTGCSNQESRTGCGACCI, “inactive”. The substance RIFWHQCGYGSIRLWGQLDR displayed an amyloid nucleation score of -0.531 ± 0.83. As for RIFYKVDTDGIIIIVYS, the entry is “inactive”.

In the case of RIGAPKRRSRTWKNPAWTGQ, the amyloid nucleation score result is “inactive”. With RIKFNHTAFNWFQIF the figure was 1.69 ± 0.091; with RIKYS, “inactive”. Take RILERVATQWRYGRCPMCDR: the amyloid nucleation score result was “inactive”. As for RILHFTICPNQWTRYKVDS, the entry is “inactive”.
